Assay results published in article PMC5881448 (The Journal of General Physiology, 2018).
Where no end group is shown, it is not given here.

Columns and labels:
[1] = target: mEAG1 intrinsic-ligand peptide (mEAG1#696–702), fluorescein-labeled (mouse); assay: fluorescence polarisation
[2] = target: hERG1 intrinsic-ligand peptide (hERG1#857–863), fluorescein-labeled (human) (UniProt Q12809); assay: fluorescence polarisation
[3] = tested on: zELKΔ740–742 channels; format: cell-based, Danio rerio; details: inside-out patches, X. laevis oocytes, with or without MgATP

Sequence of UniProt Q12809 (Q12809 whole entry, looked up, tested part not stated): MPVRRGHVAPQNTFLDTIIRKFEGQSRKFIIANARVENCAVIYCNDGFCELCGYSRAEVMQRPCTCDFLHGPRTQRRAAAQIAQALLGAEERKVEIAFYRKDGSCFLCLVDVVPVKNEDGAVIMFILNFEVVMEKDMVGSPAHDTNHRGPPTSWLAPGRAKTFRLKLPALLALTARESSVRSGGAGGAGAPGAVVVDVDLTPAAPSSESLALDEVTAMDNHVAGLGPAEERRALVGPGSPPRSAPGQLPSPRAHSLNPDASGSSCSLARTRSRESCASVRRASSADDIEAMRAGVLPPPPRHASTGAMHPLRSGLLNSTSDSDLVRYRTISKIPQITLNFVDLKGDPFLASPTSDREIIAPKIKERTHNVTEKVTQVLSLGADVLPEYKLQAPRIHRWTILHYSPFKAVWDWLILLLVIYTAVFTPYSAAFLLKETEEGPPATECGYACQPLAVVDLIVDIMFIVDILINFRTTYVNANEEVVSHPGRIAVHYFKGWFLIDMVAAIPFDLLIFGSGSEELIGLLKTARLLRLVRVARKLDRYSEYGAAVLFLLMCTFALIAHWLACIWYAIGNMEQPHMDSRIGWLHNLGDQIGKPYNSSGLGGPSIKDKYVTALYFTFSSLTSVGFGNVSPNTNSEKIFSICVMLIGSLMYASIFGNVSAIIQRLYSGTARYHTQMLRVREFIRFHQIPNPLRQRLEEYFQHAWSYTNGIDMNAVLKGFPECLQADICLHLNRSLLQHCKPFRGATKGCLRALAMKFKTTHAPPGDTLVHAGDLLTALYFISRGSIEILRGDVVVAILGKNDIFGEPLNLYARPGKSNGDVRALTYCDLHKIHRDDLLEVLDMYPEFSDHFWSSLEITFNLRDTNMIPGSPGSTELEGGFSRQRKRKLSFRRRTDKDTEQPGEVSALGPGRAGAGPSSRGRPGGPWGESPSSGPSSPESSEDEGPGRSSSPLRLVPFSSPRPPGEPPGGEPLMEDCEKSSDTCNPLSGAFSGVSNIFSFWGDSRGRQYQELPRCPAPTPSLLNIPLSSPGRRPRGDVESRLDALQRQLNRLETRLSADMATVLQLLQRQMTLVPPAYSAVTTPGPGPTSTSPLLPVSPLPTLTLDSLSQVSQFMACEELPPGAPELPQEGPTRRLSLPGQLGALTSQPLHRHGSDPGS

Q: “MBP–C-linker/CNBHD of zELK channel (Q543–L750), wild type (domain or fragment)” was tested. Which Kd [1] did it give?
A: Its Kd is 85 µM.

Q: How did the Kd [1] turn out when “MBP–C-linker/CNBHDΔ740–742 of zELK channel (Q543–L750 without Y740–L742) (domain or fragment)” was run?
A: Its Kd is 37 µM.

Q: What about the Kd [2] of the same substance?
A: Its Kd is 90 µM.

Q: With “hERG1 peptide: intrinsic-ligand peptide from hERG1 channels (#857–863) (EITFNLR; also: fluorescein label, position not given here)” as the substance, how does the “modulation of zELKΔ740–742 channels regardless of MgATP” value [3] read?
A: The value was “did not produce an appreciable amount of modulation”.
